# Test results as given in US20200264182A1, “METHOD FOR DETECTING PROSTATE CANCER” (J-OIL MILLS, INC., priority 2017, published 2020).
# How the values were obtained:
# [1] = target: serum fucosylated PSA (prostate specific antigen) (human) (UniProt P07288); assay: sandwich ELISA, anti-PSA antibody capture, biotin-lectin detection, pH 9.6; serum of Healthy 3
# [2] = target: serum fucosylated PSA (prostate specific antigen) (human) (UniProt P07288); assay: sandwich ELISA, anti-PSA antibody capture, biotin-lectin detection, pH 9.6; serum of Healthy 5
# [3] = target: serum fucosylated PSA (prostate specific antigen) (human) (UniProt P07288); assay: sandwich ELISA, anti-PSA antibody capture, biotin-lectin detection, pH 9.6; serum of Prostate cancer 5 (GS 7)
# [4] = target: serum fucosylated PSA (prostate specific antigen) (human) (UniProt P07288); assay: sandwich ELISA, anti-PSA antibody capture, biotin-lectin detection, pH 9.6; serum of Healthy 4
# [5] = target: serum fucosylated PSA (prostate specific antigen) (human) (UniProt P07288); assay: sandwich ELISA, anti-PSA antibody capture, biotin-lectin detection, pH 9.6; sera of subgroup GS8 or more, n=3
# [6] = target: serum fucosylated PSA (prostate specific antigen) (human) (UniProt P07288); assay: sandwich ELISA, anti-PSA antibody capture, biotin-lectin detection, pH 9.6; serum of Healthy 6
# [7] = target: serum fucosylated PSA (prostate specific antigen) (human) (UniProt P07288); assay: sandwich ELISA, anti-PSA antibody capture, biotin-lectin detection, pH 9.6; serum of Prostate cancer 6 (GS 7)
# [8] = target: serum fucosylated PSA (prostate specific antigen) (human) (UniProt P07288); assay: sandwich ELISA, anti-PSA antibody capture, biotin-lectin detection, pH 9.6; sera of subgroup GS6, n=2
# [9] = target: serum fucosylated PSA (prostate specific antigen) (human) (UniProt P07288); assay: sandwich ELISA, anti-PSA antibody capture, biotin-lectin detection, pH 9.6; subject samples B, subgroup Negative, n=9
# [10] = target: serum fucosylated PSA (prostate specific antigen) (human) (UniProt P07288); assay: sandwich ELISA, anti-PSA antibody capture, biotin-lectin detection, pH 9.6; subject samples B, subgroup GS6, n=9
# [11] = target: serum fucosylated PSA (prostate specific antigen) (human) (UniProt P07288); assay: sandwich ELISA, anti-PSA antibody capture, biotin-lectin detection, pH 9.6; sera of subgroup Negative (GS5 or less), n=2
# [12] = target: serum fucosylated PSA (prostate specific antigen) (human) (UniProt P07288); assay: sandwich ELISA, anti-PSA antibody capture, biotin-lectin detection, lectin reaction pH 9.6; serum of Healthy 1
# [13] = target: serum fucosylated PSA (prostate specific antigen) (human) (UniProt P07288); assay: sandwich ELISA, anti-PSA antibody capture, biotin-lectin detection, pH 9.6; serum of Prostate cancer 7 (GS 8)
# [14] = target: serum fucosylated PSA (prostate specific antigen) (human) (UniProt P07288); assay: sandwich ELISA, anti-PSA antibody capture, biotin-lectin detection, pH 9.6; sera of the healthy person group (n=7)
# [15] = target: serum fucosylated PSA (prostate specific antigen) (human) (UniProt P07288); assay: sandwich ELISA, anti-PSA antibody capture, biotin-lectin detection, lectin reaction pH 9.6; serum of Prostate cancer 4 (GS6)
# [16] = target: serum fucosylated PSA (prostate specific antigen) (human) (UniProt P07288); assay: sandwich ELISA, anti-PSA antibody capture, biotin-lectin detection, lectin reaction pH 7.4; serum of Prostate cancer 4 (GS6)
# [17] = target: serum fucosylated PSA (prostate specific antigen) (human) (UniProt P07288); assay: sandwich ELISA, anti-PSA antibody capture, biotin-lectin detection, pH 9.6; serum of Healthy 7
# [18] = target: serum fucosylated PSA (prostate specific antigen) (human) (UniProt P07288); assay: sandwich ELISA, anti-PSA antibody capture, biotin-lectin detection, pH 9.6; serum of Healthy 1
# [19] = target: serum fucosylated PSA (prostate specific antigen) (human) (UniProt P07288); assay: sandwich ELISA, anti-PSA antibody capture, biotin-lectin detection, pH 9.6; sera of subgroup GS7, n=2
# [20] = target: serum fucosylated PSA (prostate specific antigen) (human) (UniProt P07288); assay: sandwich ELISA, anti-PSA antibody capture, biotin-lectin detection, pH 9.6; serum of Prostate cancer 2 (GS 5)
# [21] = target: serum fucosylated PSA (prostate specific antigen) (human) (UniProt P07288); assay: sandwich ELISA, anti-PSA antibody capture, biotin-lectin detection, pH 9.6; serum of Healthy 2
# [22] = target: serum fucosylated PSA (prostate specific antigen) (human) (UniProt P07288); assay: sandwich ELISA, anti-PSA antibody capture, biotin-lectin detection, pH 9.6; subject samples B, subgroup GS7, n=11
# [23] = target: serum fucosylated PSA (prostate specific antigen) (human) (UniProt P07288); assay: sandwich ELISA, anti-PSA antibody capture, biotin-lectin detection, pH 9.6; serum of Prostate cancer 4 (GS 6)
# [24] = target: serum fucosylated PSA (prostate specific antigen) (human) (UniProt P07288); assay: sandwich ELISA, anti-PSA antibody capture, biotin-lectin detection, pH 9.6; subject samples B, subgroup GS8-9, n=6
# [25] = target: serum fucosylated PSA (prostate specific antigen) (human) (UniProt P07288); assay: sandwich ELISA, anti-PSA antibody capture, biotin-lectin detection, pH 9.6; serum of Prostate cancer 9 (GS 8)
# [26] = target: serum fucosylated PSA (prostate specific antigen) (human) (UniProt P07288); assay: sandwich ELISA, anti-PSA antibody capture, biotin-lectin detection, pH 9.6; serum of Prostate cancer 8 (GS 8)
# [27] = target: serum fucosylated PSA (prostate specific antigen) (human) (UniProt P07288); assay: sandwich ELISA, anti-PSA antibody capture, biotin-lectin detection, lectin reaction pH 7.4; serum of Healthy 1
# [28] = target: serum fucosylated PSA (prostate specific antigen) (human) (UniProt P07288); assay: sandwich ELISA, anti-PSA antibody capture, biotin-lectin detection, pH 9.6; serum of Prostate cancer 3 (GS 6)
# [29] = target: serum fucosylated PSA (prostate specific antigen) (human) (UniProt P07288); assay: sandwich ELISA, anti-PSA antibody capture, biotin-lectin detection, pH 9.6; sera of the prostate cancer patient group (n=9)
# [30] = target: serum fucosylated PSA (prostate specific antigen) (human) (UniProt P07288); assay: sandwich ELISA, anti-PSA antibody capture, biotin-lectin detection, pH 9.6; serum of Prostate cancer 1 (GS 4)
substance,measurement,setting,value
"Pholiota squarrosa lectin (PhoSL), biotin-labeled",PhoSL reaction value,[1],63.9 U/mL
same,PhoSL reaction value,[2],55.8 U/mL
same,PhoSL reaction value,[3],116 U/mL
same,PhoSL reaction value,[4],74.9 U/mL
same,PhoSL reaction value (mean value),[5],130 U/mL
same,PhoSL reaction value (median value),[5],169 U/mL
same,PhoSL reaction value,[6],39.7 U/mL
same,PhoSL reaction value,[7],168 U/mL
same,PhoSL reaction value (mean value),[8],142 U/mL
same,PhoSL reaction value (median value),[8],142 U/mL
same,PhoSL reaction value (mean value),[9],204 U/mL
same,PhoSL reaction value (median value),[9],178 U/mL
same,PhoSL reaction value (mean value),[10],182 U/mL
same,PhoSL reaction value (median value),[10],189 U/mL
same,PhoSL reaction value (mean value),[11],116 U/mL
same,PhoSL reaction value (median value),[11],116 U/mL
same,PhoSL reaction value,[12],51.9 U/mL
same,PhoSL reaction value,[13],126 U/mL
same,PhoSL reaction value (average value),[14],57.3 U/mL
same,PhoSL reaction value (median value),[14],55.9 U/mL
same,PhoSL reaction value,[15],179 U/mL
same,PhoSL reaction value,[16],108 U/mL
same,PhoSL reaction value,[17],59 U/mL
same,PhoSL reaction value,[18],51.9 U/mL
same,PhoSL reaction value (mean value),[19],142 U/mL
same,PhoSL reaction value (median value),[19],142 U/mL
same,PhoSL reaction value,[20],117 U/mL
same,PhoSL reaction value,[21],55.9 U/mL
same,PhoSL reaction value (mean value),[22],120 U/mL
same,PhoSL reaction value (median value),[22],211 U/mL
same,PhoSL reaction value,[23],179 U/mL
same,PhoSL reaction value (mean value),[24],233 U/mL
same,PhoSL reaction value (median value),[24],240 U/mL
same,PhoSL reaction value,[25],251 U/mL
same,PhoSL reaction value,[26],130 U/mL
same,PhoSL reaction value,[27],35.8 U/mL
same,PhoSL reaction value,[28],104 U/mL
same,PhoSL reaction value (average value),[29],145 U/mL
same,PhoSL reaction value (median value),[29],126 U/mL
same,PhoSL reaction value,[30],116 U/mL
